Paper PMC3950713
Like-named read-outs stand apart in the source and are kept apart here.

Columns and labels:
[1] = molecular target: Full-length Helicobacter pylori DprA (DNA processing protein A, HP0333) (H. pylori strain 26695) (UniProt B5ZAA1); assay: SEC
[2] = molecular target: HpDprA(5-225), C-terminally truncated Helicobacter pylori DprA (H. pylori strain 26695) (UniProt B5ZAA1)
[3] = molecular target: HpDprA(5-225), C-terminally truncated Helicobacter pylori DprA (H. pylori strain 26695) (UniProt B5ZAA1); assay: crystal structure
[4] = molecular target: HpDprA(5-217), C-terminally truncated Helicobacter pylori DprA (H. pylori strain 26695) (UniProt B5ZAA1); assay: static light scattering
[5] = molecular target: HpDprA(5-217), C-terminally truncated Helicobacter pylori DprA (H. pylori strain 26695) (UniProt B5ZAA1); assay: SEC
[6] = molecular target: HpDprA(5-217), C-terminally truncated Helicobacter pylori DprA (H. pylori strain 26695) (UniProt B5ZAA1); assay: crystal structure
HpDprA(5-217)WT [7] = molecular target: T1, HpDprA(5-217)WT (Helicobacter pylori 26695, UniProt O25100 5-217); assay: MST
T1 sequence: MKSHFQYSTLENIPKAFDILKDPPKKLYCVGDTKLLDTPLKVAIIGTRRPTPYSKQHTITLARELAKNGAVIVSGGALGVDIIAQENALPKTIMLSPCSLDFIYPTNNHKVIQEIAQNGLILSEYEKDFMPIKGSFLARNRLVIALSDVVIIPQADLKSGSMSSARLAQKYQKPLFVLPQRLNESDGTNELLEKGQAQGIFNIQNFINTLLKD

HpDprA(5-217)WT [8] = molecular target: T1, HpDprA(5-217)WT; assay: EMSA
HpDprA(5-217)WT [9] = molecular target: T1, HpDprA(5-217)WT; assay: EMSA; remark: listed apart in the source
HpDprA full-length = molecular target: T2, HpDprA full-length (Helicobacter pylori 26695, UniProt O25100 1-270); assay: EMSA
T2 sequence: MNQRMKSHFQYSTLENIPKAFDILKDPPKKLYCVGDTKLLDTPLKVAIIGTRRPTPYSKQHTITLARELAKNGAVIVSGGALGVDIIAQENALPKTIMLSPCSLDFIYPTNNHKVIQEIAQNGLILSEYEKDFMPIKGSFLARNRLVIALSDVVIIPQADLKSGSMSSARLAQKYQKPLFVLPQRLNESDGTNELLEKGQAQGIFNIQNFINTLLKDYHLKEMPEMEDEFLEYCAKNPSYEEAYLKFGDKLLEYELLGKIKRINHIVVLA

HpDprA(5-217)WT [10] = molecular target: T1, HpDprA(5-217)WT; assay: SEC/SLS

Full-length Helicobacter pylori DprA (DNA processing protein A, HP0333) (from UniProt B5ZAA1 1-266) (natural protein)
stoichiometry N [1]: 2

HpDprA(5-225), C-terminally truncated Helicobacter pylori DprA (from UniProt B5ZAA1 5-225) (domain or fragment)
stoichiometry N [2]: 2 | stoichiometry N [3]: 2

HpDprA(5-217), C-terminally truncated Helicobacter pylori DprA (from UniProt B5ZAA1 5-217) (domain or fragment)
stoichiometry N [4]: 2 | stoichiometry N [5]: 2 | stoichiometry N [6]: 2

B1: dT10 (ssDNA)
DNA: TTTTTTTTTT
binding result (HpDprA(5-217)WT [7]): no binding

B2: dT50 (ssDNA)
DNA: TTTTTTTTTTTTTTTTTTTTTTTTTTTTTTTTTTTTTTTTTTTTTTTTTT
binding result (HpDprA(5-217)WT [8]): binds

B3: dR30 (ssDNA)
DNA: CCACAACTGGATGATGCGGCGAAGTACTGT
Kd (HpDprA(5-217)WT [7]): 370 ± 8.82 nM

B4: dsDNA30 (dsDNA)
DNA 1: B3 DNA
DNA 2: ACAGTACTTCGCCGCATCATCCAGTTGTGG
Kd (HpDprA(5-217)WT [7]): 831 ± 8.48 nM

B5: dA35 (ssDNA)
DNA: AAAAAAAAAAAAAAAAAAAAAAAAAAAAAAAAAAA
Kd (HpDprA(5-217)WT [7]): 1200 ± 35.3 nM

B6: dT20 (ssDNA)
DNA: TTTTTTTTTTTTTTTTTTTT
binding result (HpDprA(5-217)WT [9]): binds

B7: dT6 (ssDNA)
DNA: TTTTTT
binding result (HpDprA(5-217)WT [7]): no binding

B8: dR35 (ssDNA)
DNA: TACCTAACTGGATGAATCTGAGAACTACTGTGAAT
binding result (HpDprA full-length): binds

B9: dT60 (ssDNA)
DNA: TTTTTTTTTTTTTTTTTTTTTTTTTTTTTTTTTTTTTTTTTTTTTTTTTTTTTTTTTTTT
binding result (HpDprA(5-217)WT [10]): binds

B10: dT40 (ssDNA)
DNA: TTTTTTTTTTTTTTTTTTTTTTTTTTTTTTTTTTTTTTTT
binding result (HpDprA(5-217)WT [8]): binds
